For one substance, Bottom (4-PL minimum of phenylephrine-induced constriction, % of baseline diameter), PE + Mimetic + LNAME, human omental arteries, pressure myography (% of baseline diameter) and Bottom (4-PL minimum of phenylephrine-induced constriction, % of baseline diameter), PE + Mimetic, human omental arteries, pressure myography, peptide 5 µmol/L (% of baseline diameter) results are on record in patent US20260258113A1, “BETA GLOBIN MIMETIC PEPTIDES AND THEIR USE” (THE UNITED STATES OF AMERICA, AS REPRESENTED BY THE …, priority 2022, published 2026).

The target in this test is endothelial nitric oxide synthase (eNOS), endogenous, in human resistance arteries (human) (UniProt P29474). Nature of the test: cell-based or functional assay.
endothelial nitric oxide synthase (eNOS), endogenous, in human resistance arteries (human), sequence (P29474 2-1203 limits assumed): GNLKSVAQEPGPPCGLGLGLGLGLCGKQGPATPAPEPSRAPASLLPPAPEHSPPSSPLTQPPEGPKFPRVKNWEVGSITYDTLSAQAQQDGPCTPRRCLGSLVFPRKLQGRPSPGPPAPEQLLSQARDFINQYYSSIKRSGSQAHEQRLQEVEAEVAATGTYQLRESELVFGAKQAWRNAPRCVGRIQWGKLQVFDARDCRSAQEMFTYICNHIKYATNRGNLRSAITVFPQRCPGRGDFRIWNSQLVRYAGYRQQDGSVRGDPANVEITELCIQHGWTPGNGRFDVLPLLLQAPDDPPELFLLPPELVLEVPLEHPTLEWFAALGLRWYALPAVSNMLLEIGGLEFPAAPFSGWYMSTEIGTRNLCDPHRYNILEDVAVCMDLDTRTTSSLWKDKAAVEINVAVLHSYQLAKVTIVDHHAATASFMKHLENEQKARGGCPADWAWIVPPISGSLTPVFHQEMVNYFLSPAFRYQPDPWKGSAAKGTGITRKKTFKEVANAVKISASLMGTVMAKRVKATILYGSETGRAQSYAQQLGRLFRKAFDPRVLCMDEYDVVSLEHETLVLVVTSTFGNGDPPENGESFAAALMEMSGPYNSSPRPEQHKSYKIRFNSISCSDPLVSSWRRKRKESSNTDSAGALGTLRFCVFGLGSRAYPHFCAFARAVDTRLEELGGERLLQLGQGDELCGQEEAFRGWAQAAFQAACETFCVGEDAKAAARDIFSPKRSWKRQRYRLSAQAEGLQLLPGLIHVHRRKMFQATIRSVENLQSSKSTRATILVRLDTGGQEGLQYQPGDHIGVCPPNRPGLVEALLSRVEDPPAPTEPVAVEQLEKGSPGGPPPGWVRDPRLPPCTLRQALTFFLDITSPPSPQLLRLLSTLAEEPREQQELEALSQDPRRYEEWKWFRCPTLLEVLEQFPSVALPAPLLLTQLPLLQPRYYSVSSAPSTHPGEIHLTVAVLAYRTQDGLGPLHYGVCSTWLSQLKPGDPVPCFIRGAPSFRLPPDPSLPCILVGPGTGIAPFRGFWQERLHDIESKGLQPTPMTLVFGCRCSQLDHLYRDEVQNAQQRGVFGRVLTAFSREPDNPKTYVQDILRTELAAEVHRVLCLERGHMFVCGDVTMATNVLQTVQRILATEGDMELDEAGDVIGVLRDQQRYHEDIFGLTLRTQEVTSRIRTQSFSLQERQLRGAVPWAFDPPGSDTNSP

On to “alpha globin mimetic peptide HbαX with N-terminal HIV-tat tag”, for which the Bottom (4-PL minimum of phenylephrine-induced constriction, % of baseline diameter), PE + Mimetic + LNAME, human omental arteries, pressure myography (% of baseline diameter) came out at 41.9 and the Bottom (4-PL minimum of phenylephrine-induced constriction, % of baseline diameter), PE + Mimetic, human omental arteries, pressure myography, peptide 5 µmol/L (% of baseline diameter) worked out at 64.6.
